Source: patent publication US20240382633A1, “RADIOPHARMACEUTICALS, METHODS FOR THE PRODUCTION THEREOF, AND USES IN TREATMENT, DIAGNOSIS AND IMAGING DISEASES” (priority 2021, published 2024)

How the values were obtained:
in vivo = assay: in vivo; set-up: species or system Balb/c nude mice; settings: male, Balb/c nude, mouse, iv, total radioactivity, Percentage of injected dose
Source text: (§1) Healthy male Balb/c nude mice (˜18 g) from 8 weeks old were obtained from the ARC and used for this study. Mice were imported into the CAI animal holding facility and monitored for 1 week prior to the study in order to acclimatize to the environment prior to injection of cells. All animals were provided with free access to food and water before and during the imaging experiments which were approved by the University of Queensland Animal Ethics Committee (Approval #AIBN/CAI/105/19/ARC/NHMRC).
(§2) 8-week-old male Balb/c nude mice were injected (27G needle) subcutaneously with PC3 ([…]) cells in 50 μL of 50:50 matrigel and cells in phosphate buffered saline into the right flank of each mouse. There was no evidence of ulceration at the time of dosing; the animals were closely monitored and remained in good condition apart from the growth of tumours. […] Labelled peptides were injected via the tail vein (29G needle; ˜2-3 MBq) and then mice were imaged using the Siemens Inveon PET-CT instrument at the various time points.
(§3) Organs were excised at 24 hours, with the percentage of injected dose of the administered compound determined by ex vivo gamma counting (Table 1, FIG. 5). Values are averages across 4 mice.

[1] = Stability of aqueous formulation (radiochemical purity over time); assay type: physicochemical; settings: up to 48 hours post End of Synthesis, 3 validation batches
Protocol: Product stability was monitored up to 48 hours post End of Synthesis (EOS) for 3 validation batches of [^64Cu]Formula (Ib) in an aqueous formulation prepared as outlined above. Due to time restrictions, identical stability sampling time points were not always achievable. […] This is attributed to radioactive decay reducing the peak area of radiolytic impurities to below detectable limits, rather than a true increase in the radiochemical purity.

PC3 tumours = assay: in vivo; set-up: species or system Balb/c nude mice; settings: mouse
Source text: as §1, §2, §3

Molecule `CC(C)C[C@H](NC(=O)C[C@H](O)[C@H](CC(C)C)NC(=O)[C@H](Cc1c[nH]cn1)NC(=O)CNC(=O)[C@@H](NC(=O)[C@H](C)NC(=O)[C@H](Cc1c[nH]c2ccccc12)NC(=O)[C@H](CCC(N)=O)NC(=O)[C@@H](Cc1ccccc1)NC(=O)CCOCCOCCOCCOCCNC(=O)CCCC(=O)NC12CNCCNCC(C)(CNCCNC1)CNCCNC2)C(C)C)C(N)=O` [[^64Cu]Formula (Ib), metal not drawn] has a tissue uptake at 24 h (in vivo; Blood) of 0.13 ± 0.04 %ID/g, a tissue uptake at 24 h (in vivo; GI Tract) of 0.3 ± 0.07 %ID/g and a tissue uptake at 24 h (in vivo; Heart) of 0.24 ± 0.02 %ID/g. For the same molecule, the tissue uptake at 24 h (in vivo; Kidneys) was 3.55 ± 0.79 %ID/g, the tissue uptake at 24 h (in vivo; Liver) was 1.52 ± 0.18 %ID/g and the tissue uptake at 24 h (in vivo; Lungs) was 0.31 ± 0.08 %ID/g. It also gave a tissue uptake at 24 h (in vivo; Pancreas) of 0.23 ± 0.02 %ID/g, a tissue uptake at 24 h (in vivo; Spleen) of 0.38 ± 0.06 %ID/g and a tissue uptake at 24 h (in vivo; Tail) of 0.56 ± 0.87 %ID/g. The tissue uptake at 24 h (in vivo; Tumour) was 4.09 ± 0.52 %ID/g and the “radiochemical purity (stability)” value [1] was ≥ 92.4%.

Work on `CC(C)C[C@H](NC(=O)C[C@H](O)[C@H](CC(C)C)NC(=O)[C@H](Cc1c[nH]cn1)NC(=O)CNC(=O)[C@@H](NC(=O)[C@H](C)NC(=O)[C@H](Cc1c[nH]c2ccccc12)NC(=O)[C@H](CCC(N)=O)NC(=O)[C@@H](Cc1ccccc1)NC(=O)CCOCCOCCOCCOCCNC(=O)CCCC(=O)NC12CNCCNCC(NC(=O)CCCC(=O)NCCOCCOCCOCCOCCC(=O)N[C@H](Cc3ccccc3)C(=O)N[C@@H](CCC(N)=O)C(=O)N[C@@H](Cc3c[nH]c4ccccc34)C(=O)N[C@@H](C)C(=O)N[C@H](C(=O)NCC(=O)N[C@@H](Cc3c[nH]cn3)C(=O)N[C@@H](CC(C)C)[C@@H](O)CC(=O)N[C@@H](CC(C)C)C(N)=O)C(C)C)(CNCCNC1)CNCCNC2)C(C)C)C(N)=O` [[^64Cu]Formula (Ia), metal not drawn] yielded a tissue uptake at 24 h (in vivo; Blood) of 0.1 ± 0.05 %ID/g, a tissue uptake at 24 h (in vivo; GI Tract) of 0.44 ± 0.04 %ID/g and a tissue uptake at 24 h (in vivo; Heart) of 0.21 ± 0.03 %ID/g. The tissue uptake at 24 h (in vivo; Kidneys) was 6.81 ± 0.67 %ID/g, the tissue uptake at 24 h (in vivo; Liver) was 16.8 ± 1.55 %ID/g and the tissue uptake at 24 h (in vivo; Lungs) was 0.36 ± 0.12 %ID/g. It also gave a tissue uptake at 24 h (in vivo; Pancreas) of 0.84 ± 0.06 %ID/g, a tissue uptake at 24 h (in vivo; Spleen) of 1.47 ± 0.2 %ID/g and a tissue uptake at 24 h (in vivo; Tumour) of 2.13 ± 0.86 %ID/g. The “Percentage of injected dose, Tail” value (PC3 tumours) was 0.28 0.05 % ID/g.
